From paper PMC11560936
Read-outs that look alike come from different tables or passages of the source.

How the values were obtained:
Experiment in all cases: ITC
[1] = target: Penaeus monodon Rab7 wild type (PmRab7-WT) (Penaeus monodon) (UniProt Q00P14)
[2] = target: Penaeus monodon Rab7 wild type (PmRab7-WT) (Penaeus monodon) (UniProt Q00P14); remark: listed apart in the source
[3] = target: Penaeus monodon Rab7 wild type (PmRab7-WT) (Penaeus monodon) (UniProt Q00P14); remark: listed apart in the source
[4] = target: Penaeus monodon Rab7 wild type (PmRab7-WT) (Penaeus monodon) (UniProt Q00P14); remark: listed apart in the source
[5] = target: Penaeus monodon Rab7 L129F mutant (PmRab7-L129F) (Penaeus monodon) (UniProt Q00P14)
[6] = target: Penaeus monodon Rab7 T22N mutant (PmRab7-T22N) (Penaeus monodon) (UniProt Q00P14)
[7] = target: Penaeus monodon Rab7 Q67L mutant (PmRab7-Q67L) (Penaeus monodon) (UniProt Q00P14)
[8] = target: Penaeus monodon Rab7 wild type (PmRab7-WT) (Penaeus monodon) (UniProt Q00P14); remark: listed apart in the source

White spot syndrome virus envelope protein VP28 with His6 tag (VP28-His6) (natural protein)
Kd [1]: 0.924 µM
dH [1]: -64.4 kJ/mol
stoichiometry N [1]: 0.795 VP28:Rab7
Kd [2]: 0.352 µM
dH [2]: -30.3 kJ/mol
stoichiometry N [2]: 0.682 VP28:Rab7
Kd [3]: 1.92 µM
dH [3]: -84.5 kJ/mol
stoichiometry N [3]: 0.703 VP28:Rab7
Kd [4]: 0.826 µM
dH [4]: -71.1 kJ/mol
stoichiometry N [4]: 0.738 VP28:Rab7
Kd [5]: 0.128 µM
dH [5]: -108 kJ/mol
stoichiometry N [5]: 0.519 VP28:Rab7
Kd [6]: 0.334 µM
dH [6]: -83.7 kJ/mol
stoichiometry N [6]: 0.625 VP28:Rab7
Kd [7]: 1.99 µM
dH [7]: -138 kJ/mol
stoichiometry N [7]: 0.582 VP28:Rab7
Kd [8]: 0.0225 µM
dH [8]: -92.5 kJ/mol
stoichiometry N [8]: 0.543 VP28:Rab7
